This is an account of results in PMC11994318, “In vitro characterization of the yeast DEAH/RHA RNA helicase Dhr1” (The Journal of Biological Chemistry, 2025).

To fix the notation:
T1: Utp14-G (aa 710–800), fusion to maltose binding protein (Saccharomyces cerevisiae, UniProt Q04500 710-800)
T1 construct: Purified as a fusion to MBP; the tag is cleavable with TEV protease but no cleavage is described; source: E. coli Codon+ BL21 (DE3) RIL (AJE854), purified (HisTrap HP, HiTrap Q HP); not shown: MBP, N-terminal, kept
T1 sequence (looked up): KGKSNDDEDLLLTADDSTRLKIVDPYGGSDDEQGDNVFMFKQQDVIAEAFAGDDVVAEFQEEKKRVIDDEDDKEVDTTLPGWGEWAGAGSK

B1: ΔN-Dhr1-ΔSKTTD (domain or fragment, Saccharomyces cerevisiae, UniProt Q04217 376-1267, looked up)
chain: VEVSRSDEIQKARIQLPVFGEEHKIMEAIHHNDVVIICGETGSGKTTQVPQFLYEAGFGAEDSPDYPGMVGITQPRRVAAVSMAERVANELGDHGHKVGYQIRFDSTAKEDTKVKFMTDGVLLREMMHDFKLTKYSSIIIDEAHERNINTDILIGMLSRCVRLRAKLHKENPIEHKKLKLIIMSATLRVSDFSENKTLFPIAPPVLQVDARQFPVSIHFNRRTAFNYTDEAFRKTCKIHQKLPPGAILVFLTGQQEITHMVKRLRKEFPFKKNSKYNKDLETPVSKMGINLEAEDIDFSVQVIDQDKFKSAIRYEEDEGNSGNGEDEEDEEEEGFEEVLTEGQTANDPLYVLPLYSLLPTKEQMRVFQKPPQGSRLCIVATNVAETSLTIPGVRYVVDSGRSKERKYNESNGVQSFEVGWVSKASANQRSGRAGRTGPGHCYRLYSSAVFEHDFEQFSKPEILRMPVESIVLQMKSMAIHNIINFPFPTPPDRVALSKAIQLLQYLGALDNKEMITEDGKKMSLFPLSPRFSKMLLVSDEKACLPYIVAIVSALSVGDPFINEFELGINEISRKPNPDENLDDKIREHDESTPGMDPELKKELRSKFYKSRSQFSKLDKFSDVFRLLSVVSAMDYVPKEQKEIFMKKNFLRGKLMEEIVKLRKQLMYIIKSNTSKENIAVVIRNEDLKSDIPSVIQIKLLKQMICAGFVDHVAVRADVLFPDDAKITNRTSIINIPYIPVLATRTPNIEDCFVYIHPTSILNNLGEMPPKYMLYYSLHLGGNNKTRMNTLCDIASTPLANIARKGLLLTYSKPLTGQGLKTVNLSPTERYCYVVPRFGSTVDNDLKIGWDLNPIAVHQKKQKGQWTVIKFITRKGFQTITGEEKEKK
notes: Dhr1 (Ecm16) of Saccharomyces cerevisiae, residues 1-375 deleted and the five residues SKTTD (aa 666-670) of loop 1 deleted; also called ΔN-ΔSKTTD; ΔNΔSKTTD; source: E. coli Codon+ BL21 (DE3) RIL (AJE854), purified (HisTrap FF, HiTrap Capto SP)
B2: ΔN-Dhr1-WT (Δ1 to 375-Dhr1) (domain or fragment, Saccharomyces cerevisiae, UniProt Q04217 376-1267, looked up)
chain: VEVSRSDEIQKARIQLPVFGEEHKIMEAIHHNDVVIICGETGSGKTTQVPQFLYEAGFGAEDSPDYPGMVGITQPRRVAAVSMAERVANELGDHGHKVGYQIRFDSTAKEDTKVKFMTDGVLLREMMHDFKLTKYSSIIIDEAHERNINTDILIGMLSRCVRLRAKLHKENPIEHKKLKLIIMSATLRVSDFSENKTLFPIAPPVLQVDARQFPVSIHFNRRTAFNYTDEAFRKTCKIHQKLPPGAILVFLTGQQEITHMVKRLRKEFPFKKNSKYNKDLETPVSKMGINSKTTDLEAEDIDFSVQVIDQDKFKSAIRYEEDEGNSGNGEDEEDEEEEGFEEVLTEGQTANDPLYVLPLYSLLPTKEQMRVFQKPPQGSRLCIVATNVAETSLTIPGVRYVVDSGRSKERKYNESNGVQSFEVGWVSKASANQRSGRAGRTGPGHCYRLYSSAVFEHDFEQFSKPEILRMPVESIVLQMKSMAIHNIINFPFPTPPDRVALSKAIQLLQYLGALDNKEMITEDGKKMSLFPLSPRFSKMLLVSDEKACLPYIVAIVSALSVGDPFINEFELGINEISRKPNPDENLDDKIREHDESTPGMDPELKKELRSKFYKSRSQFSKLDKFSDVFRLLSVVSAMDYVPKEQKEIFMKKNFLRGKLMEEIVKLRKQLMYIIKSNTSKENIAVVIRNEDLKSDIPSVIQIKLLKQMICAGFVDHVAVRADVLFPDDAKITNRTSIINIPYIPVLATRTPNIEDCFVYIHPTSILNNLGEMPPKYMLYYSLHLGGNNKTRMNTLCDIASTPLANIARKGLLLTYSKPLTGQGLKTVNLSPTERYCYVVPRFGSTVDNDLKIGWDLNPIAVHQKKQKGQWTVIKFITRKGFQTITGEEKEKK
notes: Dhr1 (Ecm16), DEAH/RHA RNA helicase of Saccharomyces cerevisiae, residues 1-375 deleted; Cloned into pET21a(+) with a C-terminal Hisx6 tag; also called ΔN-WT; dhr1-Δ1–375 (ΔN); source: E. coli Codon+ BL21 (DE3) RIL (AJE854), purified (HisTrap FF, HiTrap Capto SP)
B3: ΔN-Dhr1-YCK (RecA2 surface mutant) (domain or fragment, Saccharomyces cerevisiae, UniProt Q04217 376-1267, looked up)
chain: B2 chain with H218Y, R221C, E456K
notes: Dhr1 (Ecm16) of Saccharomyces cerevisiae, residues 1-375 deleted, with three mutations on the RecA2 surface; also called ΔN-Dhr1-RecA2; ΔN-Dhr1-RecA2-mutants; source: E. coli Codon+ BL21 (DE3) RIL (AJE854), purified (HisTrap FF, HiTrap Capto SP)
B4: Utp14-A′ (UTP14 746–780), 6-FAM-labelled peptide (peptide)
peptide: 6FAM-VFMFKQQDVIAEAFAGDDVVAEFQEEKKRVIDDED
notes: also called Utp14 fragment; source: synthetic peptide (Genscript)

Residue numbers refer to the chain shown, from its start. Ends that are not written are not given here. * marks the point of attachment. 6FAM = O=C1OC2(c3ccc(O)cc3Oc3cc(O)ccc32)c2cc(C(=O)*)ccc21

Settings in all cases: both partners purified
The target of assay [1] is T1, Utp14-G (aa 710–800), fusion to maltose …. The assay can be described thus: mass photometry; Dhr1 variant and Utp14-G mixed at a 1:1 ratio; TwoMP instrument, room temperature (25.3 °C); 40 mM Tris–HCl pH 8.0, 40 mM KCl, 150 mM NaCl, 2 mM NaOAc, 2 mM DTT, 10 mM MgCl2, 4% glycerol.
The target in assay [2] is B3. Put plainly: fluorescence polarisation; 1.25 nM 6-FAM-labelled Utp14-A′ peptide titrated with Dhr1 variants; 25 °C; 40 mM Tris–HCl pH 8.0, 40 mM KCl, 150 mM NaCl, 2 mM NaOAc, 2 mM DTT, 10 mM MgCl2, 4% glycerol, 0.05% Tween 20; saturation not reached, no Kd calculated.
The target of assay [3] is B1. Described as above.
In assay [4] the target is B2. Described as above.

For B1, the percent complex in assay [1] was found to be 48%.
For B2, in assay [1], the percent complex was 23%.
On to B3, for which, in assay [1], the percent complex worked out at 16%.
For the molecule B4, the binding result in assay [2], in assay [3] and in assay [4] was “binds” in each case.
